Where a chain is given by its changes, count along the chain named. In names and notes the source's numbering stands.

This is an account of results in US20190367627A1 (AGENUS, published 2019).

The experiment concerns the target T1, human OX40 (human, UniProt P43489 29-277).
T1 construct: Recombinantly expressed on transduced Jurkat cells; also called OX40 receptor; huOX40
T1 sequence: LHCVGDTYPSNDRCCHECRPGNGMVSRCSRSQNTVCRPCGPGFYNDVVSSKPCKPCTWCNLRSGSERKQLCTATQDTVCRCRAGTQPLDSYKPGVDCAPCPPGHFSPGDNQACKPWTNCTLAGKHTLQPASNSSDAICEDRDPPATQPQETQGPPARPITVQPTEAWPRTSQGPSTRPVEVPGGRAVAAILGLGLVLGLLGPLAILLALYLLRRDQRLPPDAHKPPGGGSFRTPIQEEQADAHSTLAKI
As to the kind of experiment: flow cytometry on Jurkat cells expressing human OX40. From the text:
FIGS. 1A, 1B, 1C, 1D, 1E, IF, 1G, 1H, 1I, and 1J are a set of flow cytometry plots showing the binding of anti-OX40 antibodies or an isotype control antibody to Jurkat cells expressing human OX40. The anti-OX40 antibodies tested include pab1949, pab2049, heavy chain variants of pab1949 (pab1949 N56Y, pab1949 Y103A, pab1949 D104A, pab1949 Y108A, and pab1949 D109A), and light chain variants of pab1949 (pab1949 A96G/L97S, pab1949 Q98K, and pab1949 T99W). All the anti-OX40 antibodies tested are IgG₁ antibodies. MFI values are plotted over a range of antibody concentrations.
The binding characteristics of the anti-OX40 antibodies to cells expressing human OX40 were analyzed by flow cytometry. Briefly, Jurkat cells were transduced to recombinantly express human OX40. Stable clones were generated via single-cell sorting (FACS ARIA Fusion). OX40 expression was verified by flow cytometry using positive control antibodies. For binding analysis, OX40-expressing Jurkat cells were incubated with anti-OX40 antibodies (12-point dose titration, 10 μg/ml to 0.00005 μg/ml) for 30 minutes at 4° C. The samples were washed twice and then incubated with FITC-conjugated mouse anti-human kappa detection antibody (Life Technologies, Catalog number: HP6062) for 30 minutes at 4° C. The samples were then washed twice and analyzed using the LSRFortessa flow cytometer (BD Biosciences). The flow cytometry plots were analyzed using a combination of FACS DIVA and WEHI Weasel software.

B1: pab1949 (antibody, human IgG1, kappa, V domains shown)
VH: EVQLVESGGGLVQPGGSLKLSCAASGFTFSGSAMHWVRQASGKGLEWVGRIRSKANSYATAYAASVKGRFTISRDDSKNTAYLQMNSLKTEDTAVYYCTSGIYDSSGYDYWGQGTLVTVSS
VL: not shown
notes: also called pab1949 (IgG1)
B1: the binding result is given as “binds”.

B2: pab1949 N56Y (antibody, IgG1, V domains shown)
VH: B1 VH with N56Y
VL: not shown
B2: the binding result is given as “binds”.

B3: pab2049 (antibody, human IgG1, V domains shown)
VH: B1 VH
VL: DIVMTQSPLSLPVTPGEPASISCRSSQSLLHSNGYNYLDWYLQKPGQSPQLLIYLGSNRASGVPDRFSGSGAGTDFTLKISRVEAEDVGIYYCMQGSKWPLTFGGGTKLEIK
notes: its constant region is not tied to this antibody; also called pab2049 (IgG1)
For the molecule B3, the binding result is “binds”.

B4: pab1949 Q98K (antibody, V domains shown)
VH: B1 VH
VL: not shown
notes: Only variable domains are tied to this antibody
For B4, the binding result is listed as “binds”.

B5: pab1949 Y103A (antibody, IgG1, V domains shown)
VH: B1 VH with Y103A
VL: not shown
On to B5, for which the binding result is on record as “binds”.

B6: pab1949 A96G/L97S (antibody, IgG1, V domains shown)
VH: B1 VH
VL: not shown
notes: as for B4
Take B6: the binding result is on record as “binds”.

B7: pab1949 T99W (antibody, V domains shown)
VH: B1 VH
VL: not shown
notes: as for B4
As to B7, the binding result is on record as “binds”.

B8: pab1949 Y108A (antibody, IgG1, V domains shown)
VH: B1 VH with Y108A
VL: not shown
In the case of B8, the binding result was “binds”.

B9: pab1949 D104A (antibody, IgG1, V domains shown)
VH: B1 VH with D104A
VL: not shown
On to B9, for which the binding result was “binds”.

B10: pab1949 D109A (antibody, IgG1, V domains shown)
VH: B1 VH with D109A
VL: not shown
With B10, the binding result is reported as “binds”.
